{"source": "paper PMC5446193", "key": {"TAT-Troponin [1]": {"target": "TAT-Troponin", "assay": "BLI"}, "TAT-Troponin [2]": {"target": "TAT-Troponin", "assay": "BLI; after the dissociation phase the sensors (1000 nM analyte samples) were moved into binding buffer with 10 mM EDTA, nm shift measured for 300 s; 25°C"}}, "data": [{"substance": "Troponin inhibitory peptide-myoglobin", "values": [{"measurement": "kon", "setting": "TAT-Troponin [1]", "result": 3700, "unit": "M⁻¹ s⁻¹"}, {"measurement": "koff (EDTA)", "setting": "TAT-Troponin [2]", "result": 0.018, "unit": "s⁻¹"}]}]}
